Test results taken from patent US20240116987A1 (UNIVERSIT CATHOLIQUE DE LOUVAIN, published 2024).
Ends that are not written are not given here.

How the values were obtained:
[1] = target: LDH-5 (tetramer of human LDH-M subunits, LDH-M4) (human, UniProt P00338 2-332); experiment: cell-based or functional assay
[2] = target: T1, LDH-Htr (truncated human LDH-H, dimeric) (human, UniProt A5A6N7 21-334 (Pan troglodytes entry)); experiment: MST, labelled LDH-Htr 100 nM, 1.5 s on time, n=3
T1 construct: Recombinant from E. coli; Mainly a dimer, in equilibrium with a weak tetramer; In MST it was labelled with Red-dye-NHS and used at 100 nM; also called hLDH-Htr; truncated LDH-H; not shown: N-terminal 6-His tag from pET-28a (NdeI site)
T1 sequence (A5A6N7 21-334): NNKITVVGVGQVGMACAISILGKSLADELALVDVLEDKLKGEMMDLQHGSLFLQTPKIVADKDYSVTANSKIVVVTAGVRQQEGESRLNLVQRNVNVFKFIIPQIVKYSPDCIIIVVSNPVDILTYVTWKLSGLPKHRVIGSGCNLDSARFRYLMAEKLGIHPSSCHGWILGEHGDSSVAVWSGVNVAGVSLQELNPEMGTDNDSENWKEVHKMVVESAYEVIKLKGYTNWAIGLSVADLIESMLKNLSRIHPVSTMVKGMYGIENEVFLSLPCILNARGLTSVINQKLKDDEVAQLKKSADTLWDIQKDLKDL
Procedure: MST measurements were performed on a Nanotemper® Monolith NT.115 instrument (NanoTemper Technologies®) using Red-dye-NHS fluorescent labelling. […] Measurements were performed in 50 mM sodium phosphate, pH 7.6, and 100 mM NaCl containing 0.01% Tween-20 in standard-treated capillaries (NanoTemper Technologies®). The final concentration of proteins in the assay was 100 nM. Ligands were titrated in 1:1 dilutions following manufacturer's recommendations. Experiments were performed in triplicates using 40% LED power, high MST power, […] and Laser off time 3 s. Poypeptides were evaluated for their thermophoretic pattern, and Kd's were extracted from raw data at a 1.5 s MST on time following the manufacturer's instructions.

| Binder | EC50 of ΔTm (NanoDSF destabilization) of tetrameric LDH-5 (300 nM) [1] | Kd [2] |
| --- | --- | --- |
| Ac-GEMMDLQHGSLFLQTP-NH2 (Synthetic peptide bought from Genecust) [polypeptide GP-16] | 262 µM | 240 µM |
| LEDKLKGEMMDLQHGSLFLQTP-NH2 (Synthetic peptide bought from Genecust; also called "cluster B1"-derived polypeptide) [polypeptide LP-22] | – | 156 µM |
